Data from patent publication US20200376119A1 (Hoffmann-La Roche, published 2020).

Target: T1, carcinoembryonic antigen (CEA) on MKN-45 tumor cells (human, UniProt P06731 35-702)
T1 sequence (looked up): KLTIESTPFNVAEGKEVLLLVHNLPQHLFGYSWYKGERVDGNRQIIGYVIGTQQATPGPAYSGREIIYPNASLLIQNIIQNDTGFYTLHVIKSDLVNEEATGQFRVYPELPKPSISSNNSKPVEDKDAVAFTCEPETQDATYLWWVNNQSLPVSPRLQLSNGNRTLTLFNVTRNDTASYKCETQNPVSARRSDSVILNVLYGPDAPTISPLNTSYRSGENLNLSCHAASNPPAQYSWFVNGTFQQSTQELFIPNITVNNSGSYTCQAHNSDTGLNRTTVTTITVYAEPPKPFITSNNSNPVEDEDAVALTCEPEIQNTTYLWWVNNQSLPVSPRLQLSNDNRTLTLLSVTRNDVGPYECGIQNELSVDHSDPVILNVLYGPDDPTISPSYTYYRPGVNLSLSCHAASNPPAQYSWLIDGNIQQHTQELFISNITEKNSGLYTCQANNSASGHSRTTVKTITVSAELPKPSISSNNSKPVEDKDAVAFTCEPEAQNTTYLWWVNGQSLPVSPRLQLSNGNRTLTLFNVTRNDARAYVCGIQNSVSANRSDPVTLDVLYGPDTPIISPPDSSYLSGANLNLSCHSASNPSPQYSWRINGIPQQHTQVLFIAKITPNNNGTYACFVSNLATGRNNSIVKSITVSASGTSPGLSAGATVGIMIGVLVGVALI
Assay: cell-based or functional assay

B1: CEA TCB (bispecific antibody)
chain 1: QAVVTQEPSLTVSPGGTVTLTCGSSTGAVTTSNYANWVQEKPGQAFRGLIGGTNKRAPGTPARFSGSLLGGKAALTLSGAQPEDEAEYYCALWYSNLWVFGGGTKLTVLSSASTKGPSVFPLAPSSKSTSGGTAALGCLVKDYFPEPVTVSWNSGALTSGVHTFPAVLQSSGLYSLSSVVTVPSSSLGTQTYICNVNHKPSNTKVDKKVEPKSC
chain 2: not shown
chain 3: QVQLVQSGAEVKKPGASVKVSCKASGYTFTEFGMNWVRQAPGQGLEWMGWINTKTGEATYVEEFKGRVTFTTDTSTSTAYMELRSLRSDDTAVYYCARWDFAYYVEAMDYWGQGTTVTVSSASTKGPSVFPLAPSSKSTSGGTAALGCLVKDYFPEPVTVSWNSGALTSGVHTFPAVLQSSGLYSLSSVVTVPSSSLGTQTYICNVNHKPSNTKVDKKVEPKSCDKTHTCPPCPAPEAAGGPSVFLFPPKPKDTLMISRTPEVTCVVVDVSHEDPEVKFNWYVDGVEVHNAKTKPREEQYNSTYRVVSVLTVLHQDWLNGKEYKCKVSNKALGAPIEKTISKAKGQPREPQVCTLPPSRDELTKNQVSLSCAVKGFYPSDIAVEWESNGQPENNYKTTPPVLDSDGSFFLVSKLTVDKSRWQQGNVFSCSVMHEALHNHYTQKSLSLSPGK
chain 4: DIQMTQSPSSLSASVGDRVTITCKASAAVGTYVAWYQQKPGKAPKLLIYSASYRKRGVPSRFSGSGSGTDFTLTISSLQPEDFATYYCHQYYTYPLFTFGQGTKLEIKRTVAAPSVFIFPPSDEQLKSGTASVVCLLNNFYPREAKVQWKVDNALQSGNSQESVTEQDSKDSTYSLSSTLTLSKADYEKHKVYACEVTHQGLSSPVTKSFNRGEC
For B1, the “EC50 of tumor cell killing (LDH release, MKN-45 cells with human PBMCs, E:T 10:1, 24 h)” value was 0.615 nM and the “EC50 of tumor cell killing (LDH release, MKN-45 cells with human PBMCs, E:T 10:1, 48 h)” value was 0.362 nM.
